Measurements published in article PMC3243626 (The EMBO Journal, 2011).
Square brackets hold non-standard residues; d marks the D form. Ends that are not written are not given here. * marks the point of attachment. Biotin = O=C1N[C@H]2[C@H](CS[C@H]2CCCCC(=O)*)N1; pT = C[C@@H](OP(=O)(O)O)[C@H](N)C(=O)O; pS = N[C@@H](COP(=O)(O)O)C(=O)O

T1: GST–Dpb11-N (BRCT1&2, aa 1–275) (S. cerevisiae, UniProt P47027 1-275)
T1 sequence (looked up): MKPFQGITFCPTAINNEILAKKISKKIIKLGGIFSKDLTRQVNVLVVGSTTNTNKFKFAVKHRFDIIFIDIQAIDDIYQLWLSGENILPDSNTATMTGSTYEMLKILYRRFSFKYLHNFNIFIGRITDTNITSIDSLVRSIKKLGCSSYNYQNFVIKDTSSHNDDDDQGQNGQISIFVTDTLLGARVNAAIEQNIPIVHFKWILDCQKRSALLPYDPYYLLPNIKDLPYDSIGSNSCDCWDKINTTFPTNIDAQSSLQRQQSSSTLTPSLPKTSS

B1: recombinant, full-length, His-tagged Dpb11 (natural protein, S. cerevisiae, UniProt P47027 1-764, looked up)
chain: MKPFQGITFCPTAINNEILAKKISKKIIKLGGIFSKDLTRQVNVLVVGSTTNTNKFKFAVKHRFDIIFIDIQAIDDIYQLWLSGENILPDSNTATMTGSTYEMLKILYRRFSFKYLHNFNIFIGRITDTNITSIDSLVRSIKKLGCSSYNYQNFVIKDTSSHNDDDDQGQNGQISIFVTDTLLGARVNAAIEQNIPIVHFKWILDCQKRSALLPYDPYYLLPNIKDLPYDSIGSNSCDCWDKINTTFPTNIDAQSSLQRQQSSSTLTPSLPKTSSLLNKFKPKGEKIWDKAMSLQQHSKTNFSVLGQSPLSINNKQEDLSDNSTLIFKNCAFIIHHIFPGNHRSILTKIVVQNGGKIETSYLSGIYDHSYYIIPSNKALDSFNDLPEIIDDNDGIVTEFFIERCLYYQKLLHPIDLWSKPFLSTIEFQVSSSSKLLHHEFSSSPFLNVTITGFSGVELLHLTKVLNLLKPMGINYVEYLNKSTDILLINLAALPSIPKTHPLWSNEFSDLFTQFCINNNNDDPGDNNRKDFQNNSILRNSMKRKIEYIKKFHSIPVVTPAFIFKLLSAASGENNEIFLNNIKWCIICPRGHKDDFKCKIKKPYYTSISSEKKYQNNDPKIDKTILLKRNNSSLSEHSMKDTKNELLQKIRETDSGRKKRSVSSSIMDVSSERQMPDTKRIKLESLPKNFVPKQIKRTTSWGTIMSENVPTEQPTAISNPEEIPRTEEVSHTQVTYGSIQDKKRTASLEKPMRRQTRNQTKELDS

Legend:
[1] = target: T1, GST–Dpb11-N (BRCT1&2, aa 1–275); assay: pull-down
[2] = target: immunopurified Mec1–18myc–Ddc2 (S. cerevisiae, UniProt P38111 1-2368; Q04377 1-747); assay: pull-down
Chain of immunopurified Mec1–18myc–Ddc2 (P38111 whole entry, chain 1 of 2): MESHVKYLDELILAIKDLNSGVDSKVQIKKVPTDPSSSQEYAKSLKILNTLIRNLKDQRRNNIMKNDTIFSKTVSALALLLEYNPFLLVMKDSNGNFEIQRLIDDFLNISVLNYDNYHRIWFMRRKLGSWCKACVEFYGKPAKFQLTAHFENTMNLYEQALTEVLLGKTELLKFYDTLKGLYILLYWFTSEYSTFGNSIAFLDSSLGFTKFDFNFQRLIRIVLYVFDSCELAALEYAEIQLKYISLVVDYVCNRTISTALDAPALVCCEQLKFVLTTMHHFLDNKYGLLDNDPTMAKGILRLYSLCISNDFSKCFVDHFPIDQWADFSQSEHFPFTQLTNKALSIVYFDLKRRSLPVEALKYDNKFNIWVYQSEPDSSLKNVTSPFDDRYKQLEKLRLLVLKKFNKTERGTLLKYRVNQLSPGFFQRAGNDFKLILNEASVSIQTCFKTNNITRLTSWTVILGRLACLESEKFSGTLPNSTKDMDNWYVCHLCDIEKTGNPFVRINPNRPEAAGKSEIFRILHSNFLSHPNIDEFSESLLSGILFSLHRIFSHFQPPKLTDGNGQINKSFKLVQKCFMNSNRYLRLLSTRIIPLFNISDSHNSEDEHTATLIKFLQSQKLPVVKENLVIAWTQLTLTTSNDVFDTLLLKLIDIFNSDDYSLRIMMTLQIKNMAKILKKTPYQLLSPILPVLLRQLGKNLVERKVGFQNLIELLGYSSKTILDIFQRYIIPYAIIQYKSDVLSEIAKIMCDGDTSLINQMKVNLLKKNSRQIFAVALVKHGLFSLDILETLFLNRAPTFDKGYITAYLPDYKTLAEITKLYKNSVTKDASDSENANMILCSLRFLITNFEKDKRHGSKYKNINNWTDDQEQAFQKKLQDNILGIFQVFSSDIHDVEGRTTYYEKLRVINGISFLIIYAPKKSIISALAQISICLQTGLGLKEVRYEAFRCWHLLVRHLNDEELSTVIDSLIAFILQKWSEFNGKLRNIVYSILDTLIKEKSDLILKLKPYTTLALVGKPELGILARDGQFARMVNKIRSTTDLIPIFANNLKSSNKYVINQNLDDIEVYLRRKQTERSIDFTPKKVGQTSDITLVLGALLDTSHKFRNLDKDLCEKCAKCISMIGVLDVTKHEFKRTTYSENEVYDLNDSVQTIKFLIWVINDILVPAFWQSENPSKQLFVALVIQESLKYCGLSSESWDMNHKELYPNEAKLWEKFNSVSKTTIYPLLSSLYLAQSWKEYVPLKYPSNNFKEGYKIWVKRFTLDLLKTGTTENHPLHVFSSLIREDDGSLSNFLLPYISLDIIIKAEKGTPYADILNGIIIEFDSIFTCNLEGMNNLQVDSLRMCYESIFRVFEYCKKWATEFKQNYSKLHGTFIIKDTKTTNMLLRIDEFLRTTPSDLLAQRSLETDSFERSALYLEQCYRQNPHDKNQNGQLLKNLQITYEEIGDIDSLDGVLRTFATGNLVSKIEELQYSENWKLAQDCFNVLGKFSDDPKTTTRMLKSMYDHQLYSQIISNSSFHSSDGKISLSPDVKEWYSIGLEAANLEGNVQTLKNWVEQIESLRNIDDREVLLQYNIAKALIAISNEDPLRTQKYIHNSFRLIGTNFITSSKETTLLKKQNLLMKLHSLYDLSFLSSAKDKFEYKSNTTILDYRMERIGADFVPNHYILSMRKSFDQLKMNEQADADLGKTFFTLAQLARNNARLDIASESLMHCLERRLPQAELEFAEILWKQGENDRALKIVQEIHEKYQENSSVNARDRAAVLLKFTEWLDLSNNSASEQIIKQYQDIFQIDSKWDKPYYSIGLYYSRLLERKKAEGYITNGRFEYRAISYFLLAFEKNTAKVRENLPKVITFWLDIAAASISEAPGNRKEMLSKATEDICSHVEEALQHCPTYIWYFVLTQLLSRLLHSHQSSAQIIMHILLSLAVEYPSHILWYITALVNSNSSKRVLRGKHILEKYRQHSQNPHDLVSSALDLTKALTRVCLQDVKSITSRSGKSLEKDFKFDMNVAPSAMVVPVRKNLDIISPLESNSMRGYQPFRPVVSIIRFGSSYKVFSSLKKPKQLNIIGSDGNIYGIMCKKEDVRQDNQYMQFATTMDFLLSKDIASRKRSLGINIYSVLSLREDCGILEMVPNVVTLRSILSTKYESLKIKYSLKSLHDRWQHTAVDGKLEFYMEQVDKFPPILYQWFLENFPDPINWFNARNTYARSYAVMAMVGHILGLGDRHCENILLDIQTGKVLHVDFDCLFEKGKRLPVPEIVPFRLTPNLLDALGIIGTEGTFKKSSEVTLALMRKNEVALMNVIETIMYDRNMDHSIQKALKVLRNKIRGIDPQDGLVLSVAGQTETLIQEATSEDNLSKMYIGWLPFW
Chain of immunopurified Mec1–18myc–Ddc2 (Q04377 whole entry, chain 2 of 2): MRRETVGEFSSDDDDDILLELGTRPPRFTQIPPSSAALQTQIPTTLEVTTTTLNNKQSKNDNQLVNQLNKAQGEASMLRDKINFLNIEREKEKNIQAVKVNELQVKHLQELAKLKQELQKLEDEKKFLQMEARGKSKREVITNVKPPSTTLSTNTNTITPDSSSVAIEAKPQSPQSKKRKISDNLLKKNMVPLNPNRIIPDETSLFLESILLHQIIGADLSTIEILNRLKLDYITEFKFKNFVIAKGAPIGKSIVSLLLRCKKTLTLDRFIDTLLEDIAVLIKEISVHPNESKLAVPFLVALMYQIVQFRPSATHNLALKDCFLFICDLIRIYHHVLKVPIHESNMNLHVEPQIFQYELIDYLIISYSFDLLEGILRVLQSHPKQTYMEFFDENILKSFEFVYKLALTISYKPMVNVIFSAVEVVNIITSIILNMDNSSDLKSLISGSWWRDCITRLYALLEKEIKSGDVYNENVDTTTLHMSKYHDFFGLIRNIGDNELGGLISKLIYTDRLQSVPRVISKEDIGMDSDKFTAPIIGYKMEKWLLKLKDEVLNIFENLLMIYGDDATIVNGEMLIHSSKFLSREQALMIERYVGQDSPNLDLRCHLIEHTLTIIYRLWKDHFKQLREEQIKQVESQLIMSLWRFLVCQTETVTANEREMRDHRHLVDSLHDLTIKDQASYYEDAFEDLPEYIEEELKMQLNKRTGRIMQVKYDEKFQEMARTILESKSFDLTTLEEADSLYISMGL

Binder	binding result [1]	binding result [2]
{Biotin-EAhx}-GISAQKGPVFHSTGQTEEIKTQIIN[pS]PEQNALNAT (peptide, UniProt P14737 437-471, looked up) [Rad9 phospho-S462 peptide (biotinylated 35mer)]	binds	–
B1	–	binds
TGQTEEIKTQIINSPEQNALNATFE[pT]PVTLSRINF (peptide, UniProt P14737 449-483, looked up, not fully specified (residue 23, N-terminus)) [Rad9 phospho-T474 peptide (biotinylated 35mer)]	binds	–
